Results as given in US20240400618A1.

target: pxEBN4-ACE2-AAA-His (human) (UniProt Q9BYF1)
Also: test concentration or dose not given here.

With “pxEBNCP14-tPa-FLS-CT-His (from UniProt P0DTC2 16-1213) (ligand)” as the substance, how does the Response, shift in Wavelength (nm) read?
Its Response, shift in Wavelength (nm) is 0.529 nm.

“pxEBNCP15-mIgGHC-FLS-CT-His (from UniProt P0DTC2 16-1213) (ligand)” was tested. Which Response, shift in Wavelength (nm) did it give?
The Response, shift in Wavelength (nm) was 0.492 nm.

With “pxEBNCP16-IL2-FLS-CT-His (from UniProt P0DTC2 16-1213) (ligand)” as the substance, how does the Response, shift in Wavelength (nm) read?
The Response, shift in Wavelength (nm) was 0.145 nm.

Which Response, shift in Wavelength (nm) does the source give for “pxENB1-His-TEV-FLS-TN (from UniProt P0DTC2 14-1213) (ligand)” here?
Its Response, shift in Wavelength (nm) is 0.0257 nm.

“pxENB2-His-TEV-FLS-CT (from UniProt P0DTC2 14-1213) (ligand)” was tested. Which Response, shift in Wavelength (nm) did it give?
Its Response, shift in Wavelength (nm) is 0.344 nm.

“pxENB5-his-TEV-FLS (from UniProt P0DTC2 14-1213) (ligand)” was tested. Which Response, shift in Wavelength (nm) did it give?
The Response, shift in Wavelength (nm) was 0.185 nm.

With “pxENB8-FLS-TN-His (from UniProt P0DTC2 15-1213) (ligand)” as the substance, how does the Response, shift in Wavelength (nm) read?
Its Response, shift in Wavelength (nm) is 0.0591 nm.

How did the Response, shift in Wavelength (nm) turn out when “pxENB9-FLS-CT-His (from UniProt P0DTC2 15-1213) (ligand)” was run?
The Response, shift in Wavelength (nm) was 0.555 nm.

Which Response, shift in Wavelength (nm) does the source give for “pxENB12-FLS-His (from UniProt P0DTC2 15-1213) (ligand)” here?
Its Response, shift in Wavelength (nm) is 0.127 nm.

Which Response, shift in Wavelength (nm) does the source give for “pxENB14-His-TEV-RBD (from UniProt P0DTC2 319-541) (ligand)” here?
Its Response, shift in Wavelength (nm) is 0.304 nm.

“pxENB17-RBD-His (from UniProt P0DTC2 319-541) (ligand)” was tested. Which Response, shift in Wavelength (nm) did it give?
The Response, shift in Wavelength (nm) was 0.301 nm.

How did the Response, shift in Wavelength (nm) turn out when “pxENBEP17_TPA_Nuc(1-182)_Spike (15-1216, GAAS, PP)_10xHis (ligand)” was run?
Its Response, shift in Wavelength (nm) is 0.232 nm.

“pxENBEP18_Spike_Nuc(1-182)_10xHis (ligand)” was tested. Which Response, shift in Wavelength (nm) did it give?
Its Response, shift in Wavelength (nm) is 0.277 nm.

target: pxEBN4-ACE2-AAA-His (human) (UniProt Q9BYF1); remark: another data set of the same source

For “pxENBCP17-FLS-CT-His-SBP (from UniProt P0DTC2 15-1213) (ligand)”, which Response, shift in Wavelength (nm) is on record?
The Response, shift in Wavelength (nm) was 0.0382 nm.

“pxENBCP19-FLS-CT-His-StrepTagII (from UniProt P0DTC2 15-1213) (ligand)” was tested. Which Response, shift in Wavelength (nm) did it give?
Its Response, shift in Wavelength (nm) is 0.042 nm.

For “pxENBCP20-FLS-CT-His-TST (from UniProt P0DTC2 15-1213) (ligand)”, which Response, shift in Wavelength (nm) is on record?
Its Response, shift in Wavelength (nm) is 0.0719 nm.
